The results in this text go back to US20170258835A1.

For one experiment, the target named is HLA-A2/NY-ESO-1. Nature of the experiment: cell-based or functional assay.
For a further experiment, the target named is CD19 (UniProt P15391). Nature of the experiment: cell-based or functional assay.
For another experiment, the target named is EGFRviii (UniProt P00533).

CD19, sequence (P15391 20-556 limits assumed): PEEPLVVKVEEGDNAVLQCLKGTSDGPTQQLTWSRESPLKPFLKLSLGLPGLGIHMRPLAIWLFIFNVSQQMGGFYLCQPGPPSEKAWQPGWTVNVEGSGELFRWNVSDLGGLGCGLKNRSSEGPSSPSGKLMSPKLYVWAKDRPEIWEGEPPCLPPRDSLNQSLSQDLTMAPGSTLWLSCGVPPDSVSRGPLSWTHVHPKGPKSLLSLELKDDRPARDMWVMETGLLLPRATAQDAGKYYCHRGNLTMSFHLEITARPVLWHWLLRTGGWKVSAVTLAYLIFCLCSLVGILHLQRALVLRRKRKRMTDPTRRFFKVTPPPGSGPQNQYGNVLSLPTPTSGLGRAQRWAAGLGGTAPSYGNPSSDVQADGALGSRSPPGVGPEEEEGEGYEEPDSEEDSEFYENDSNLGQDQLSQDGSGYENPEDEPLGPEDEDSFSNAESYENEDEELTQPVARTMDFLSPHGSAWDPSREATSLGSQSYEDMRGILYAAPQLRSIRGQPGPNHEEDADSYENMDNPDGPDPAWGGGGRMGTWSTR

With NY-ESO-1 (1G4) TCR alpha and beta, in the experiment with HLA-A2/NY-ESO-1, the CD8/CD107a double positive cells, stimulated with Nalm6-ESO (Affi-epsilon co-electroporated, EP3 to EP6) is 49.5 to 53.3%.

Regarding “Blinatumomab (secreted by T cells electroporated with Blinatumomab Bis-RNA) (bispecific antibody)”, in the experiment with CD19, the CD107a up-regulation, stimulated with K562-CD19 was 81% and the IFN-gamma ELISA; lowest dose of CD19 mRNA electroporated into K562 that was recognized was found to be 0.001 µg.

In turn, MR1-BBZ showed a CD107a+ share of CD8+ T cells after stimulation with K562-EGFRvIII with EGFRviii of 51.8%.
